In data set [1] the test system is iron loaded prion or abeta40 templates. It is filed as binding.
Data set [2] deals with iron loaded abeta42 aggregates mixed with CE proteins. Nature of the data set: Proteolysis of amyloid plaque complexes assembled on iron loaded abeta42 aggregates. It is filed as biochemical. The following applies: 20 ng protease, 37° C., 1 hr. Here is the method:
This example illustrates the use of the invention to evaluate the proteolytic degradation of the amyloid complexes. For example, iron loaded abeta42 aggregates are mixed with CE proteins, and the resulting template complexes are treated with five different serine proteases. More specifically, nine independent reactions are carried out with each containing 5.0 μg of the iron-loaded aggregates of abeta42 and 6.0 μg of the CE proteins. After incubation and washing, the complexes are suspended in 50 μl of PBS. The nine complexes are sub-divided into two groups, with six individual complexes comprising Group I and three complexes comprising Group II. In order to interrogate the role of the plasminogen (PLG) activation system, which is implicated in the catabolism of amyloid peptides as well as the pathobiology of amyloid diseases (Melchor J P et al, 2003; Van Nostrand W E et al, 1999; Kranenburg O, 2005), the Group II complexes are subjected to another cycle of binding with both PLG (0.5 μg) and BSA (0.5 μg) proteins. After binding and washing, the PLG and BSA bound plaques complexes are suspended in 50 μl of PBS.
For proteolysis analysis, five of the six Group I template complexes are incubated with 20 ng of each protease (plasnin, chymotrypsin, trypsin, proteinase K and urokinase). The remaining complex is used as a control without protease treatment. […]

Data set [3] has as its target iron-loaded abeta42 templates (Homo sapiens, UniProt P05067). The data set is described as follows: Binding of proteins to iron-loaded abeta42 templates. The following applies: SDS-PAGE. An excerpt:
FIG. 46 illustrates an example involving the identification of proteins that bind to iron-loaded abeta42 templates. The iron-loaded abeta42 templates are combined with known and unknown cell extracts (CE) and subjected to CPA, as described herein. To determine which proteins successfully bind the templates, the final template complexes are suspended in denaturing sample buffer, boiled, and loaded into SDS-PAGE gel. The gels are then stained with coomassie blue or silver stain in order to visualize the binding proteins. […] In the negative control, no significant binding is observed when the proteins are incubated in the absence of the templates.
In experiments such as these, known and unknown cell extract proteins that are used for the complex formation with the aggregates are diluted in PBS to a 1 mg/ml concentration and stored at −70° C. as 50 μl aliquots. These samples are thawed on ice and centrifuged (13000 rpm, 15 min, 4° C.) to remove any precipitation. The supernatant containing soluble proteins is used to form complexes with the aggregates. Various proteins are screened against the iron loaded abeta42 aggregates for examining their binding. […] The proteins in the gels are detected using coomassie blue or silver stain (Owl silver stain, Pierce, Ill., USA). […]

Chain of iron-loaded abeta42 templates (P05067 672-713 limits assumed): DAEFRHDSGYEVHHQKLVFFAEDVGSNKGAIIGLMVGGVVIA

B1: STI: soybean trypsin inhibitor (protein, UniProt P01070 25-205, looked up)
Trypsin inhibitor A: DFVLDNEGNPLENGGTYYILSDITAFGGIRAAPTGNERCPLTVVQSRNELDKGIGTIISSPYRIRFIAEGHPLSLKFDSFAVIMLCVGIPTEWSVVEDLPEGPAVKIGENKDAMDGWFRLERVSDDEFNNYKLVFCPQQAEDDKCGDIGISIDHDDGTRRLVVSKNKPLVVQFQKLDKESL
B1: the “Binding with iron loaded prion or abeta40 templates” value in data set [1] was “no detectable binding”.

B2: proteinase K: serine protease (protein, UniProt P06873 106-384, looked up)
Proteinase K: AAQTNAPWGLARISSTSPGTSTYYYDESAGQGSCVYVIDTGIEASHPEFEGRAQMVKTYYYSSRDGNGHGTHCAGTVGSRTYGVAKKTQLFGVKVLDDNGSGQYSTIIAGMDFVASDKNNRNCPKGVVASLSLGGGYSSSVNSAAARLQSSGVMVAVAAGNNNADARNYSPASEPSVCTVGASDRYDRRSSFSNYGSVLDIFGPGTSILSTWIGGSTRSISGTSMATPHVAGLAAYLMTLGKTTAASACRYIADTANKGDLSNIPFGTVNLLAYNNYQA
On to B2, for which the “Degradation of proteins bound to the aggregates” value in data set [2] is reported as “degraded”.

B3: plasmin: serine protease (protein, UniProt P00747 20-580; P00747 581-810, looked up)
Plasmin heavy chain A: EPLDDYVNTQGASLFSVTKKQLGAGSIEECAAKCEEDEEFTCRAFQYHSKEQQCVIMAENRKSSIIIRMRDVVLFEKKVYLSECKTGNGKNYRGTMSKTKNGITCQKWSSTSPHRPRFSPATHPSEGLEENYCRNPDNDPQGPWCYTTDPEKRYDYCDILECEEECMHCSGENYDGKISKTMSGLECQAWDSQSPHAHGYIPSKFPNKNLKKNYCRNPDRELRPWCFTTDPNKRWELCDIPRCTTPPPSSGPTYQCLKGTGENYRGNVAVTVSGHTCQHWSAQTPHTHNRTPENFPCKNLDENYCRNPDGKRAPWCHTTNSQVRWEYCKIPSCDSSPVSTEQLAPTAPPELTPVVQDCYHGDGQSYRGTSSTTTTGKKCQSWSSMTPHRHQKTPENYPNAGLTMNYCRNPDADKGPWCFTTDPSVRWEYCNLKKCSGTEASVVAPPPVVLLPDVETPSEEDCMFGNGKGYRGKRATTVTGTPCQDWAAQEPHRHSIFTPETNPRAGLEKNYCRNPDGDVGGPWCYTTNPRKLYDYCDVPQCAAPSFDCGKPQVEPKKCPGR
Plasmin light chain B: VVGGCVAHPHSWPWQVSLRTRFGMHFCGGTLISPEWVLTAAHCLEKSPRPSSYKVILGAHQEVNLEPHVQEIEVSRLFLEPTRKDIALLKLSSPAVITDKVIPACLPSPNYVVADRTECFITGWGETQGTFGAGLLKEAQLPVIENKVCNRYEFLNGRVQSTELCAGHLAGGTDSCQGDSGGPLVCFEKDKYILQGVTSWGLGCARPNKPGVYVRVSRFVTWIEGVMRNN
modifications: Plasmin
notes: serine protease
Regarding B3, in data set [2], the “Degradation of proteins bound to the aggregates” value is “degraded”.

B4: chicken ovalbumin: chicken ovalbumin (protein, UniProt P01012 2-386, looked up)
Ovalbumin: GSIGAASMEFCFDVFKELKVHHANENIFYCPIAIMSALAMVYLGAKDSTRTQINKVVRFDKLPGFGDSIEAQCGTSVNVHSSLRDILNQITKPNDVYSFSLASRLYAEERYPILPEYLQCVKELYRGGLEPINFQTAADQARELINSWVESQTNGIIRNVLQPSSVDSQTAMVLVNAIVFKGLWEKAFKDEDTQAMPFRVTEQESKPVQMMYQIGLFRVASMASEKMKILELPFASGTMSMLVLLPDEVSGLEQLESIINFEKLTEWTSSNVMEERKIKVYLPRMKMEEKYNLTSVLMAMGITDVFSSSANLSGISSAESLKISQAVHAAHAEINEAGREVVGSAEAGVDAASVSEEFRADHPFLFCIKHIATNAVLFFGRCVSP
As to B4, the “Binding with iron-loaded abeta42 templates” value in data set [3] was “no detectable binding”.
